US20220135638A1 (Takeda / Millennium, published 2022)
Numbered stars: 1 amine (or outer) side, 2 acyl side, 3 side chain; on linkers, the order of the positions; unused ones are H or OH. Square brackets hold non-standard residues; d marks the D form. Primed or numbered codes have the meaning given here. Side chains are listed from the residue outwards. Ends that are not written are not given here. * marks the point of attachment. C20 diacid = O=C(O)CCCCCCCCCCCCCCCCCCC(=O)*; C18 diacid = O=C(O)CCCCCCCCCCCCCCCCC(=O)*; C16 diacid = O=C(O)CCCCCCCCCCCCCCC(=O)*; γGlu = O=C(O)[C@H](CCC(=O)[*:2])N[*:1]; Iva = CC[C@](C)(N)C(=O)O; PEG3′ = not defined here; Aib = CC(C)(N)C(=O)O

Legend:
[1] = molecular target: T1, full-length human GLP-1R (GenBank NM_002062) with an N-terminal FLAG tag on HEK-293T cells (human), P43220; assay: cell-based or functional assay
T1 chain: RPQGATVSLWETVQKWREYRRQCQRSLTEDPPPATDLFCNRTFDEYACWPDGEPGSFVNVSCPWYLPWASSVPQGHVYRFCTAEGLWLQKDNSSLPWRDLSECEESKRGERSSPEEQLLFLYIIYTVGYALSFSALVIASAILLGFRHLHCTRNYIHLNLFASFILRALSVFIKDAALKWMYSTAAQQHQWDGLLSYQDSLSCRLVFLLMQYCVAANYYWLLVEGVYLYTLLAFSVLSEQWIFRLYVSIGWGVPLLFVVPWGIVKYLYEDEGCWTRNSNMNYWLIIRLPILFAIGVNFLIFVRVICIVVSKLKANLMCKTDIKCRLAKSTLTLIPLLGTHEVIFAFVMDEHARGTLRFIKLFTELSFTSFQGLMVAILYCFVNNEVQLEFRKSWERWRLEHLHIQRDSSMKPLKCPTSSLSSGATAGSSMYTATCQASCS

[2] = molecular target: T2, full-length human GIPR (GenBank NM_000164) with an N-terminal FLAG tag on HEK-293T cells (human), P48546; assay: cell-based or functional assay
T2 chain: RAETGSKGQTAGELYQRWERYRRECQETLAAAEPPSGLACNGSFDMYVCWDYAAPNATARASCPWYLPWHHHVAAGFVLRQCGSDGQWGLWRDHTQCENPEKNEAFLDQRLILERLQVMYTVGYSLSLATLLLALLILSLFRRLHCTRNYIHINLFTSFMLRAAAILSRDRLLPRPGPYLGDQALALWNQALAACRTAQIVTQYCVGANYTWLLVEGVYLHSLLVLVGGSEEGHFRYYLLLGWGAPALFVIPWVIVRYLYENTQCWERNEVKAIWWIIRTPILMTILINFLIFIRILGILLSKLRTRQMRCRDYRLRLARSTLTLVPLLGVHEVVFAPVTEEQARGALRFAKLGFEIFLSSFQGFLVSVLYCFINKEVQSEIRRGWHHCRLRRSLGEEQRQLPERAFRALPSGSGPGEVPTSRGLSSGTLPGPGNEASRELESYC

| Binder | GLP EC50 [1] [nM] | GIP EC50(pM) [2] [pM] |
| --- | --- | --- |
| Y[Aib]EGTFISDYSIALDR[Aib]HQ[Aib]NFVNW[Iva]LAQRPSSK([Gly-Gly-Gly-Gly-Gly-γGlu-C18 diacid])APPPS (ends and bridges not checked) [Compound No. 448] | > 1000 | 0.54 |
| Y[Aib]EGTFISDYSIALDR[Aib]HQ[Aib]NFVNW[Iva]LAQRPSSGAK([Gly-Gly-Gly-Gly-Gly-γGlu-C18 diacid])PPS (ends and bridges not checked) [Compound No. 454] | > 1000 | 1.14 |
| Y[Aib]EGTFISDYSIALDR[Aib]HQ[Aib]NFVNW[Iva]LAQRPK([Gly-Gly-Gly-Gly-Gly-γGlu-C20 diacid])SGAPPPS (ends and bridges not checked) [Compound No. 443] | 977 | 0.86 |
| Y[Aib]EGTFISDYSIALDR[Aib]HQ[Aib]NFVNW[Iva]LAQRPSSGAPK([Gly-Gly-Gly-Gly-Gly-γGlu-C16 diacid])PS (ends and bridges not checked) [Compound No. 456] | > 1000 | 0.57 |
| Y[Aib]EGTFISDYSIALDR[Aib]HQ[Aib]NFVNW[Iva]LAQRPSK([Gly-Gly-Gly-Gly-Gly-γGlu-C20 diacid])GAPPPS (ends and bridges not checked) [Compound No. 446] | 891 | 0.85 |
| Y[Aib]EGTFISDYSIALDR[Aib]HQ[Aib]NFVNW[Iva]LAQRPSSGAK([Gly-Gly-Gly-Gly-Gly-γGlu-C20 diacid])PPS (ends and bridges not checked) [Compound No. 455] | > 1000 | 2.24 |
| Y[Aib]EGTFISDYSIALDR[Aib]HQ[Aib]NFVNW[Iva]LAQRK([PEG3′-PEG3′-C20 diacid])SSGAPPPSR (ends and bridges not checked) [Compound No 913] | 575 |  |
| Y[Aib]EGTFISDYSIALDR[Aib]HQ[Aib]NFVNW[Iva]LAQRPSK([Gly-Gly-Gly-Gly-Gly-γGlu-C16 diacid])GAPPPS (ends and bridges not checked) [Compound No. 444] | > 1000 | 0.39 |
| Y[Aib]EGTFISDYSIALDR[Aib]HQ[Aib]NFVNW[Iva]LAQRPSSGAPPK([Gly-Gly-Gly-Gly-Gly-γGlu-C16 diacid])S (ends and bridges not checked) [Compound No. 459] | > 1000 | 0.41 |
| Y[Aib]EGTFISDYSIALDR[Aib]HQ[Aib]NFVNW[Iva]LAQRPSSGAK([Gly-Gly-Gly-Gly-Gly-γGlu-C16 diacid])PPS (ends and bridges not checked) [Compound No. 453] | > 1000 | 0.6 |
| Y[Aib]EGTFISDYSIALDR[Aib]HQ[Aib]NFVNW[Iva]LAQRPSSGK([Gly-Gly-Gly-Gly-Gly-γGlu-C20 diacid])PPPS (ends and bridges not checked) [Compound No. 452] | > 1000 | 2.17 |
| Y[Aib]EGTFISDYSIALDR[Aib]HQ[Aib]NFVNW[Iva]LAQRPSSGK([Gly-Gly-Gly-Gly-Gly-γGlu-C16 diacid])PPPS (ends and bridges not checked) [Compound No. 450] | > 1000 | 0.4 |
| Y[Aib]EGTFISDYSIALDR[Aib]HQ[Aib]NFVNW[Iva]LAQRPSSK([Gly-Gly-Gly-Gly-Gly-γGlu-C16 diacid])APPPS (ends and bridges not checked) [Compound No. 447] | > 1000 | 0.31 |
| Y[Aib]EGTFISDYSIALDR[Aib]HQ[Aib]NFVNW[Iva]LAQRPSSGAPK([Gly-Gly-Gly-Gly-Gly-γGlu-C18 diacid])PS (ends and bridges not checked) [Compound No. 457] | > 1000 | 0.82 |
| Y[Aib]EGTFISDYSIALDR[Aib]HQ[Aib]NFVNW[Iva]LAQRPSSGAPPPK([Gly-Gly-Gly-Gly-Gly-γGlu-C20 diacid]) (ends and bridges not checked) [Compound No. 464] | 977 | 1.29 |
| Y[Aib]EGTFISDYSIALDR[Aib]HQ[Aib]NFVNW[Iva]LAQRPSSGAPPK([Gly-Gly-Gly-Gly-Gly-γGlu-C18 diacid])S (ends and bridges not checked) [Compound No. 460] | > 1000 | 0.44 |
| Y[Aib]EGTFISDYSIALDR[Aib]HQ[Aib]NFVNW[Iva]LAQRPSK([Gly-Gly-Gly-Gly-Gly-γGlu-C18 diacid])GAPPPS (ends and bridges not checked) [Compound No. 445] | > 1000 | 0.38 |
| Y[Aib]EGTFISDYSIALDR[Aib]HQ[Aib]NFVNW[Iva]LAQRPSSGAPPPK([Gly-Gly-Gly-Gly-Gly-γGlu-C16 diacid]) (ends and bridges not checked) [Compound No. 462] | > 1000 | 0.35 |
| Y[Aib]EGTFISDYSIALDR[Aib]HQ[Aib]NFVNW[Iva]LAQRPK([Gly-Gly-Gly-Gly-Gly-γGlu-C16 diacid])SGAPPPS (ends and bridges not checked) [Compound No. 441] | > 1000 | 0.33 |
| Y[Aib]EGTFISDYSIALDR[Aib]HQ[Aib]NFVNW[Iva]LAQRPSSK([Gly-Gly-Gly-Gly-Gly-γGlu-C20 diacid])APPPS (ends and bridges not checked) [Compound No. 449] | 912 | 0.65 |
| Y[Aib]EGTFISDYSIALDR[Aib]HQ[Aib]NFVNW[Iva]LAQRPSSGAPK([Gly-Gly-Gly-Gly-Gly-γGlu-C20 diacid])PS (ends and bridges not checked) [Compound No. 458] | > 1000 | 1.31 |
| Y[Aib]EGTFISDYSIALDR[Aib]HQ[Aib]NFVNW[Iva]LAQRPSSGK([Gly-Gly-Gly-Gly-Gly-γGlu-C18 diacid])PPPS (ends and bridges not checked) [Compound No. 451] | > 1000 | 0.74 |
| Y[Aib]EGTFISDYSIALDR[Aib]HQ[Aib]NFVNW[Iva]LAQRPSSGAPPK([Gly-Gly-Gly-Gly-Gly-γGlu-C20 diacid])S (ends and bridges not checked) [Compound No. 461] | > 1000 | 1.3 |
| Y[Aib]EGTFISDYSIALDR[Aib]HQ[Aib]NFVNW[Iva]LAQRKSSGAPPPS (not fully specified (residue 31); ends and bridges not checked) [Compound No. 468] | > 1000 | 0.44 |
| Y[Aib]EGTFISDYSIALDR[Aib]HQ[Aib]NFVNW[Iva]LAQRPSSGAPPPK([Gly-Gly-Gly-Gly-Gly-γGlu-C18 diacid]) (ends and bridges not checked) [Compound No. 463] | > 1000 | 0.52 |
| Y[Aib]EGTFISDYSIALDR[Aib]HQ[Aib]NFVNW[Iva]LAQRPK([Gly-Gly-Gly-Gly-Gly-γGlu-C18 diacid])SGAPPPS (ends and bridges not checked) [Compound No. 442] | > 1000 | 1.01 |
